Data reported in the DeepSol protein solubility set.

Test: soluble on expression in E. coli; label from the status in PepcDB or PDB records

Q: Which “soluble on expression in E. coli” value does the source give for “SELLCHEVDPVRRAVRDRNLLRDDRVLQNLLTIEERYLPQCSYFKCVQKDIQPYMRRMVATWMLEVCEEQKCEEEVFPLAMNYLDRFLAGVPTPKSHLQLLGAVCMFLASKLKETSPLTAEKLCIYTDNSIKPQELLEWELVVLGKLKWNLAAVTPHDFIEHILRKLPQQREKLSLIRKHAQTFIALCATDFKFAMYPPSMIATGSVGAAICGLQQDEEVSSLTCDALTELLAKITNTDVDCLKACQEQIEAVLLNSLQQYRQDQRDGSKSEDELDQASTPTDVRDIDL” here?
A: soluble

Q: Which “soluble on expression in E. coli” value does the source give for “MSQGHRDAGAAACRTIIVTNHCPPIMRKRDIWRVDQFHLLRKVGSGYASTVYLGTCRTSGNQVAVKLYHKQKLSELNHFQVAREITIHSSLDHKNIIQLWAAFEDQYGIYLVFEYASKGDVFTEVERRGGQLDEAETVRAVVYPFLSALDYLHSRCIIHRDIKPENLLFTATGVLKVADFGLSINFSQERPVTRVGTLDYMAPEVVVCPDKHRPQDHKELKHLHYTPLVDAWAVGVLAYELIVGRPPFDKGQKKATIAEILNSEPFIPPWLSEGATHFIRWSLTKEVGKRPSVQQLAEHPWIVSHMKQSVLAPARRQLVKTDSFVEPRQLGFRGSNAPGAGEPSGPSKEPPRPLQVSSVAQGGRFLGHSSSMSAMDGMRYRDIHLDSVTGGMASAATEALKSVKRVSDGDGTTGGRPSAAGGRVSRAGTARNSGTGQAPLSRMNSMSAQAVVAAAAAAMASGSFGGAAHGSEDSPKGGRALTREELYASLTAPLGGRGSPVLARSFTAGRASPAPQQMAPLPTNAGRKSGGGGLGSGRSSLSGQATGAPPSRGAAELAHDLSRLRVDSAASGGGGAAGPSTSASGAVPYSPGKGSSGIRPSPPQAPSPTARGLRTGSPLIPSRLSQSFTSPVSPLAAGSNASAGTPHLSRLGKTSNSGIVPAVATANTPGSARPPAGMDAHSSAASSAAAAGAQSSPHQPAAAAAGSSLTVSTTPASPGGSSGYGQTRASPRELPGERDPELEDSEVEDEPETERSPSKSKSLFKKIFS” here?
A: not soluble

Q: Which “soluble on expression in E. coli” value does the source give for “MNENQLSKRLATVGDLIPRGSRLADIGSDHAYLPVALMLENKLSFAVAGEVVEGPYQSAKTQVSKSNLTDKIIVRLANGLDAIEPEDQIDVISICGMGGTLIRDILEAGRKKNRLTGKERLVLQPNIGEPTLRRWLMANDYSIIDETIVEENRKLYEIIVAEKTEQSVSYTDQELLFGPVLIKKQGPVFTKKWQRELKQRKTVLAQLAKASGEHIEKQAKLQQDQQLIEEVLANGCER” here?
A: not soluble

Q: For “MGSDKIHHHHHHMSIFANLFKKQADADAKVVGNVEDFVSLTRVYFQSVIAVNLGITNIRFLPDVANFKRLFKVATQGGKLGLAEKSASRKMLMQDYGISESFFKEIDTSIKKNCRTQNDVQAYLFMYQGFSSDLMMLMGNLMQWKFRMPAIFKKALRSMTEKTVHDVCTKTVWKADDVHKTAAAVRQYKERLGFSEQWMSEYVYNIVLLAKKEPKHKDEEAKAK”, which “soluble on expression in E. coli” value is on record?
A: not soluble

Q: For “MSLNLGDLTNFVEKPLAAVSNIVNTPNSAGRYRPFYLRNLLDAVQGRNLNDAVKGKVVLITGGSSGIGAAAAKKIAEAGGTVVLVARTLENLENVANDIRAIRGNGGTAHVYPCDLSDMDAIAVMADQVLGDLGGVDILINNAGRSIRRSLELSYDRIHDYQRTMQLNYLGAVQLILKFIPGMRERHFGHIVNVSSVGVQTRAPRFGAYIASKAALDSLCDALQAETVHDNVRFTTVHMALVRTPMISPTTIYDKFPTLTPDQAAGVITDAIVHRPRRASSPFGQFAAVADAVNPAVMDRVRNRAFNMFGDSSAAKGSESQTDTSELDKRSETFVRATRGIHWEGHHHHHH”, which “soluble on expression in E. coli” value is on record?
A: not soluble

Q: For “MSNSKDLMSEFEKLRQETSKIQYSLIQKLPSEPSSFVENQLLLETQTLCGQLLKNQEEQNILNEKLRNEQKIIKLKHNTEMKSMRDKLETLTTAQAAQKLDFERHFEMMRQSHSAKIVKMERDLRNMKYDLHSLRSDMDSRKNCENRAAPKPEFQIFVKVLGVSYAFKIHREDTVFDIKNDIEHRHDIPQHSYWLSFSGKRLEDHCSIGDYNIQKSSTITMYFRSG”, which “soluble on expression in E. coli” value is on record?
A: not soluble

Q: Which “soluble on expression in E. coli” value does the source give for “MGHHHHHHSHMHKSNFETLQHYLESQIIGQHDLVKQLLIALLADGHILVEGPPGLAKTRAVKSLSDCVEGDFHRIQFTPDLLPADLTGTDIFRPETGEFTFQSGPIFNSLILADEINRAPAKVQAAMLEAMAEKQVTAGRHTYALPELFLVMATQNPIEQEGTYPLPEAQLDRFLLHLEVDYPDAEHELAILRINRGEAKGECSIERPSLSQQDIFTARQEVLDIHMAEAIEQYIVRLVMATRRASEYDSELDKWLAMGVSPRATIALDRCARAHAWLAGRDFVSPEDVQAMAYPVLRHRLLLSYHAQAEGVTSNQVIDKLLNLVGSA” here?
A: soluble
